{
  "source": "paper doi:10.1101/2024.03.06.583760",
  "about": "(bioRxiv, 2024)",
  "biological_target": "the molecule itself",
  "assay": "cryo-EM 2D classification",
  "note": "Several values for one entry are separate records, joined by “and”; a condition that tells them apart may be missing. Equal entries are not always repeated.",
  "data": [
    {"protein": "α-latrotoxin (natural protein) EGEDLTLEEKAEICSELELQQKYVDIASNIIGDLSSLPIAGKIAGTIAAAAMTATHVASGRLDIEQTLLGCSDLPFDQIKEVLENRFNEIDRKLDSHSAALEEITKLVEKSISVVEKTRKQMNKRFDEVMKSIQDAKVSPIISKINNFARYFDTEKERIRGLKLNDYILKLEEPNGILLHFKESRTPTDDSLQAPLFSIIEEGYAVPKSIDDELAFKVLYALLYGTQTYVSVMFFLLEQYSFLANHYYEKGYLEKYDEYFNSLNNVFLDFKSSLVGTGTSNNEGLLDRVLQVLMTVKNSEFLGLEKNGVDEMLNEKINLFNKIKEEIEGKQKMTLSETPENFAQISFDKDITTPIGDWRDGREVRYAVQYASETLFSKISHWSDPVSVREKACPTLRMPVDQTRRNVLVFRKFDSSKPQLVGEITPYLSNFIDIDRDLYNAASNPDSAVGFKEFTKLNYDGANIRATFDHGRTVFHAAAKSGNDKIMFGLTFLAKSTELNQPDKKGYTPIHVAADSGNAGIVNLLIQRGVSINSKTYHFLQTPLHLAAQRGFVTTFQRLMESPEININERDKDGFTPLHYAIRGGERILEAFLNQISIDVNAKSNTGLTPFHLAIIKNDWPVASTLLGSKKVDINAVDENNITALHYAAILGYLETTKQLINLKEINANVVSSPGLLSALHYAILYKHDDVASFLMRSSNVNVNLKALGGITPLHLAVIQGRKQILSLMFDIGVNIEQKTDEKYTPLHLAAMSKYPELIQILLDQGSNFEAKTNSGATPLHLATFKGKSQAALILLNNEVNWRDTDENGQMPIHGAAMTGLLDVAQAIISIDATVVDIEDKNSDTPLNLAAQNSHIDVIKYFIDQGADINTRNKKGLAPLLAFSKKGNLDMVKYLFDKNANVYIADNDGMNFFYYAVQNGHLNIVKYAMSEKDKFEWSNTDNNRRDECPNEECAISHFAVCDAVQFDRIEIVKYFVGTLGNFAICGPLHQAARYGHLDIVKYLVEEEFLSVDGSKTDTPLCYASENGHFTVVQYLVSNGAKVNHDCGNGMTAIDKAITKNHLQVVQFLAANGVDFRRKNSRGTTPFLTAVAENALHIAEYLIREKRQDININEQNVDKDTALHLAVYYKNLQMIKLLIKYGIDVTIRNAYDKTALDIAIDAKFSNIVEYLKTKSGKFRR", "values": [
      {"measurement": "stoichiometry N", "result": "2 and 3 and 4"}
    ]}
  ]
}
